These results are taken from publication PMC12272218.

The target in this experiment is T1, Uracil-DNA Glycosylase (UDG) (UniProt P12295).
T1 sequence: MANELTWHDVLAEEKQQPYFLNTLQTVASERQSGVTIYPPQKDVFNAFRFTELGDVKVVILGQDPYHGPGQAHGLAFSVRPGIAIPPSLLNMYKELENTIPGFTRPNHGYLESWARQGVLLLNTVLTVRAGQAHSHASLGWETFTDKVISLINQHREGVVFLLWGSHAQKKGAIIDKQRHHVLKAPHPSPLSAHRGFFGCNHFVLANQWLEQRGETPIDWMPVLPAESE

Substance “uracil glycosylase inhibitor (UGI) (from UniProt P14739 1-84) (natural protein)” displayed a half-maximal inhibitory concentration of UGI on UDG activity, read by fluorescence of the dU-containing circular crRNA-assisted CRISPR-Cas12a system of 0.087 U/mL.
